Results on one molecule are retold here after patent US12098164 (KOREA UNIVERSITY RESEARCH AND BUSINESS FOUNDATION, dated 2024).

The target of this experiment is human serum albumin (HSA) (human, UniProt P02768 25-609). In words: ELISA, HSA coated at 2 ug/ml, anti-His tag primary antibody and HRP secondary antibody, absorbance at 450 nm.
Chain of human serum albumin (HSA) (P02768 25-609 limits assumed): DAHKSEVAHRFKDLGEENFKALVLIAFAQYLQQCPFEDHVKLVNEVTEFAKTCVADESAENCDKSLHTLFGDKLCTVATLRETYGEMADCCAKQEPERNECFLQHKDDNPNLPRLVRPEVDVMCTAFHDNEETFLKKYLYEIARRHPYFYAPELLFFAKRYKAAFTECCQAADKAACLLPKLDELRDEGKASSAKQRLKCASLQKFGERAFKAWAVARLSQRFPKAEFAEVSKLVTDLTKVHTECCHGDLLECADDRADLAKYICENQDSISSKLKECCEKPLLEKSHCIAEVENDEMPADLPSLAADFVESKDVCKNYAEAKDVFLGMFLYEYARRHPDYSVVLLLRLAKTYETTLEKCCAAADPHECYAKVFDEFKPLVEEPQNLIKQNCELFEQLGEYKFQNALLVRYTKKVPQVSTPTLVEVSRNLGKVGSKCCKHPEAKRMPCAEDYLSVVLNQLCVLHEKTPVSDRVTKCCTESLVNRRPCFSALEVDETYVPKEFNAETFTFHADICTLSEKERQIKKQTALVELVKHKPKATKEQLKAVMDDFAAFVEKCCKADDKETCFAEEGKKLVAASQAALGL

B1: hepatitis B virus capsid protein nanoparticles (HBVC) (other)
chain: HHHHHHDIDPYKEFGASVELLSFLPSDFFPSIRDLLDTASALYREALESPEHCSPHHTALRQAILCWGELMNLATWVGSNLEDPASRELVVSYVNVNMGLKIRQLLWFHISCLTFGRETVLEYLVSFGVWIRTPPAYRPPNAPILSTLPETTVV
notes: also called HBVC (aff-, ABP-)
In the case of B1, the binding result is “no binding (tested: 0.001 to 1.5 mg/ml tested)”.
